Reference: the supplement of paper PMC11246515
± gives the standard deviation of the averaged measurements.

Test: total protein half-life in vivo (active degradation + dilution); higher = more stable protein
[1] = E. coli NCM3722 delta-clpP delta-lon delta-hslV, growth: N-lim chemostat, doubling time 6 h
[2] = E. coli NCM3722 delta-clpP, growth: N-lim chemostat, doubling time 6 h
[3] = E. coli NCM3722 delta-hslV, growth: N-lim chemostat, doubling time 6 h
[4] = E. coli NCM3722 delta-smpB, growth: N-lim chemostat, doubling time 6 h
[5] = wild type E. coli NCM3722, growth: C-lim chemostat, doubling time 3 h
[6] = wild type E. coli NCM3722, growth: C-lim chemostat, doubling time 6 h
[7] = wild type E. coli NCM3722, growth: C-lim chemostat, doubling time 12 h
[8] = wild type E. coli NCM3722, growth: N-lim chemostat, doubling time 6 h
[9] = wild type E. coli NCM3722, growth: N-lim chemostat, doubling time 12 h
[10] = wild type E. coli NCM3722, growth: P-lim chemostat, doubling time 6 h
[11] = wild type E. coli NCM3722, growth: P-lim chemostat, doubling time 12 h
[12] = E. coli NCM3722 delta-lon, growth: N-lim chemostat, doubling time 6 h

Sequence | total protein half-life in vivo [1] [h] | total protein half-life in vivo [2] [h] | total protein half-life in vivo [3] [h] | total protein half-life in vivo [4] [h] | total protein half-life in vivo [5] [h] | total protein half-life in vivo [6] [h] | total protein half-life in vivo [7] [h] | total protein half-life in vivo [8] [h] | total protein half-life in vivo [9] [h] | total protein half-life in vivo [10] [h] | total protein half-life in vivo [11] [h] | total protein half-life in vivo [12] [h]
MQILADLLNTIPAIDSTAMSRAQRHIDGLLKPVGSLGKLEVLAIQLAGMPGLNGIPHVGKKAVLVMCADHGVWEEGVAISPKEVTAIQAENMTRGTTGVCVLAEQAGANVHVIDVGIDTAEPIPGLINMRVARGSGNIASAPAMSRRQAEKLLLDVICYTQELAKNGVTLFGVGELGMANTTPAAAIVSTITGRDPEEVVGIGANLPTDKLANKIDVVRRAITLNQPNPQDGVDVLAKVGGFDLVGIAGVMLGAASCGLPVLLDGFLSYAAALAACQMSPAIKPYLIPSHLSAEKGARIALSHLGLEPYLNMEMRLGEGSGAALAMPIIEAACAIYNNMGELAASNIVLPGNTTSDLNS | 4.974 ± 0.0055 | 4.84 ± 1.1 | 3.39 ± 0.091 | 3.17 ± 0.12 | 3 ± 0.2 | 4.63 ± 0.68 | 8.1 ± 0.064 | 3.27 ± 0.16 | 5.18 ± 0.075 | 4.994 ± 0.018 | 9.91 ± 0.96 | 
MQILFNDQAMQCAAGQTVHELLEQLDQRQAGAALAINQQIVPREQWAQHIVQDGDQILLFQVIAGG | 2.75 |  |  |  |  |  | 4.47 | 1.3 |  | 3.24 | 5.24 ± 0.77 | 
MQILLANPRGFCAGVDRAISIVENALAIYGAPIYVRHEVVHNRYVVDSLRERGAIFIEQISEVPDGAILIFSAHGVSQAVRNEAKSRDLTVFDATCPLVTKVHMEVARASRRGEESILIGHAGHPEVEGTMGQYSNPEGGMYLVESPDDVWKLTVKNEEKLSFMTQTTLSVDDTSDVIDALRKRFPKIVGPRKDDICYATTNRQEAVRALAEQAEVVLVVGSKNSSNSNRLAELAQRMGKRAFLIDDAKDIQEEWVKEVKCVGVTAGASAPDILVQNVVARLQQLGGGEAIPLEGREENIVFEVPKELRVDIREVD | 5.14 ± 0.44 | 3.68 ± 0.91 | 2.78 ± 0.23 | 2.44 ± 0.24 | 2.5 ± 0.044 | 3.72 ± 0.34 | 5.14 ± 0.29 | 2.69 ± 0.3 | 3.69 ± 0.062 | 2.89 ± 0.034 | 5.25 ± 0.3 | 3.1 ± 0.29
MQKEQLSALMDGETLDSELLNELAHNPEMQKTWESYHLIRDSMRGDTPEVLHFDISSRVMAAIEEEPVRQPATLIPEAQPAPHQWQKMPFWQKVRPWAAQLTQMGVAACVSLAVIVGVQHYNGQSETSQQPETPVFNTLPMMGKASPVSLGVPSEATANNGQQQQVQEQRRRINAMLQDYELQRRLHSEQLQFEQAQTQQAAVQVPGIQTLGTQSQ [P0AFX7] |  |  |  |  |  | 0.455 ± 0.09 | 0.469 | 0.895 ± 0.046 | 0.953 ± 0.18 | 0.801 | 1.03 ± 0.45 | 
MQKIVIVANGAPYGSESLFNSLRLAIALREQESNLDLRLFLMSDAVTAGLRGQKPGEGYNIQQMLEILTAQNVPVKLCKTCTDGRGISTLPLIDGVEIGTLVELAQWTLSADKVLTF [P0AB52] | 5.73 ± 0.71 | 5.32 ± 0.28 | 4.94 ± 1.6 | 4.81 ± 0.086 | 2.64 ± 0.25 | 6.4 ± 1.1 | 13.2 ± 0.93 | 5.55 ± 0.19 | 10.1 ± 0.94 | 5.43 | 12.5 ± 1.7 | 5.96 ± 0.57
MQKLKQQVFEANMELPRYGLVTFTWGNVSAIDRERGLVVIKPSGVAYETMKAADMVVVDMSGKVVEGEYRPSSDTATHLELYRRYPSLGGIVHTHSTHATAWAQAGLAIPALGTTHADYFFGDIPCTRGLSEEEVQGEYELNTGKVIIETLGNAEPLHTPGIVVYQHGPFAWGKDAHDAVHNAVVMEEVAKMAWIARGINPQLNHIDSFLMNKHFMRKHGPNAYYGQK | 4.02 ± 1.1 |  |  |  |  |  |  |  |  |  |  | 
MQKRAIYPGTFDPITNGHIDIVTRATQMFDHVILAIAASPSKKPMFTLEERVALAQQATAHLGNVEVVGFSDLMANFARNQHATVLIRGLRAVADFEYEMQLAHMNRHLMPELESVFLMPSKEWSFISSSLVKEVARHQGDVTHFLPENVHQALMAKLA [P0A6I6] | 4.49 | 5.11 ± 0.59 |  | 4.82 ± 1 |  | 6.01 ± 0.25 | 10.8 | 4.62 | 7.33 ± 0.35 | 6.14 ± 0.072 | 12.9 ± 1 | 5.58
MQKVVLATGNVGKVRELASLLSDFGLDIVAQTDLGVDSAEETGLTFIENAILKARHAAKVTALPAIADDSGLAVDVLGGAPGIYSARYSGEDATDQKNLQKLLETMKDVPDDQRQARFHCVLVYLRHAEDPTPLVCHGSWPGVITREPAGTGGFGYDPIFFVPSEGKTAAELTREEKSAISHRGQALKLLLDALRNG | 4.93 ± 0.34 | 4.228 ± 0.016 | 4.12 ± 0.13 | 3.951 ± 0.0058 | 3.16 ± 0.17 | 5.1 ± 0.19 | 8.51 ± 0.84 | 4 ± 0.17 | 6.87 ± 0.21 | 5.14 ± 0.35 | 10.7 ± 0.027 | 4.93 ± 0.076
MQKYISEARLLLALAIPVILAQIAQTAMGFVDTVMAGGYSATDMAAVAIGTSIWLPAILFGHGLLLALTPVIAQLNGSGRRERIAHQVRQGFWLAGFVSVLIMLVLWNAGYIIRSMENIDPALADKAVGYLRALLWGAPGYLFFQVARNQCEGLAKTKPGMVMGFIGLLVNIPVNYIFIYGHFGMPELGGVGCGVATAAVYWVMFLAMVSYIKRARSMRDIRNEKGTAKPDPAVMKRLIQLGLPIALALFFEVTLFAVVALLVSPLGIVDVAGHQIALNFSSLMFVLPMSLAAAVTIRVGYRLGQGSTLDAQTAARTGLMVGVCMATLTAIFTVSLREQIALLYNDNPEVVTLAAHLMLLAAVYQISDSIQVIGSGILRGYKDTRSIFYITFTAYWVLGLPSGYILALTDLVVEPMGPAGFWIGFIIGLTSAAIMMMLRMRFLQRLPSAIILQRASR | 5.68 ± 0.19 | 6.61 |  | 5.45 ± 0.68 | 3.6 |  | > 16 | 6.87 ± 0.42 | 12 ± 0.72 | 5.52 ± 0.6 | 12.7 ± 0.75 | 4.97 ± 0.54
